# According to patent publication US20240327535A1 (EISAI R AND D MANAGEMENT, published 2024):
# Residue numbers refer to the chain shown, from its start.
# T1: extracellular domain of human BCMA (human, UniProt Q02223 1-54)
# T1 construct: amine-linked to Octet AR2G tips; also called hsBCMA; BCMA (human)
# T1 sequence: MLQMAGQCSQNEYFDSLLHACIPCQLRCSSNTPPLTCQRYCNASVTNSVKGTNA
# B1: AB200-R1H26-R2Vk1 (Fab, V domains shown)
# VH: QVQLVQSGAEVKKPGSSVKVSCKASGGSFSNYWMHWVRQAPGQGLEWMGATYRIHSDTFYNQKFKGRVTITADKSTSTAYMELSSLRSEDTAVYYCARGAIYHGYDVLDNWGQGTLVTVSS
# VL: DIQMTQSPSSLSASVGDRVTITCRASQSISSYLNWYQQKPGKAPKLLIYAASSLQSGVPSRFSGSGSGTDFTLTISSLQPEDFATYYCQQFRKLPWSFGQGTKLEIKR
# B2: AB200-R1H26-R2Vk16 (Fab, V domains shown)
# VH: B1 VH
# VL: B1 VL with L33I, K93R, S97T
# B3: AB200-R1H26-R2Vk18 (Fab, V domains shown)
# VH: B1 VH
# VL: B1 VL with L33I, L94I, S97T
# B4: AB200-R1H26-R2Vk14 (Fab, V domains shown)
# VH: B1 VH
# VL: B1 VL with L33I, F91Y, K93R
# B5: AB200-R1H26-R2Vk15 (Fab, V domains shown)
# VH: B1 VH
# VL: B1 VL with L33I, F91Y, K93R, L94I, S97T
# B6: AB200-R1H26-R2Vk2 (Fab, V domains shown)
# VH: B1 VH
# VL: B1 VL with L33I
# B7: AB200-R1H26-R2Vk17 (Fab, V domains shown)
# VH: B1 VH
# VL: B1 VL with L33I, F91Y, L94I
# B8: AB200-R1H26-R2Vk6 (Fab, V domains shown)
# VH: B1 VH
# VL: B1 VL with L33I, A51T, S53N
# B9: AB200-R1H26-R2Vk46 (Fab, V domains shown)
# VH: B1 VH
# VL: B1 VL with L33I, A51T, S53N, S56I, K93R, S97T
# B10: AB200-R1H26-R2Vk26 (Fab, V domains shown)
# VH: B1 VH
# VL: B1 VL with A51T, S53N, L54I, K93R, S97T
# B11: AB200-R1H26-R2Vk32 (Fab, V domains shown)
# VH: B1 VH
# VL: B1 VL with A51T, S53N, S56I, F91Y, L94I
# B12: AB200-R1H26-R2Vk36 (Fab, V domains shown)
# VH: B1 VH
# VL: B1 VL with L33I, A51T, S53N, K93R, S97T
# B13: AB200-R1H26-R2Vk42 (Fab, V domains shown)
# VH: B1 VH
# VL: B1 VL with L33I, A51T, S53N, L54I, F91Y, L94I
# B14: AB200-R1H26-R2Vk12 (Fab, V domains shown)
# VH: B1 VH
# VL: B1 VL with F91Y, L94I
# B15: AB200-R1H26-R2Vk23 (Fab, V domains shown)
# VH: B1 VH
# VL: B1 VL with A51T, S53N, L94I, S97T
# B16: AB200-R1H26-R2Vk10 (Fab, V domains shown)
# VH: B1 VH
# VL: B1 VL with F91Y, K93R, L94I, S97T
# B17: AB200-R1H26-R2Vk25 (Fab, V domains shown)
# VH: B1 VH
# VL: B1 VL with A51T, S53N, L54I, F91Y, K93R, L94I, S97T
# B18: AB200-R1H26-R2Vk31 (Fab, V domains shown)
# VH: B1 VH
# VL: B1 VL with A51T, S53N, S56I, K93R, S97T
# B19: AB200-R1H26-R2Vk30 (Fab, V domains shown)
# VH: B1 VH
# VL: B1 VL with A51T, S53N, S56I, F91Y, K93R, L94I, S97T
# B20: AB200-R1H26-R2Vk8 (Fab, V domains shown)
# VH: B1 VH
# VL: B1 VL with L33I, A51T, S53N, S56I
# B21: AB200-R1H26-R2Vk39 (Fab, V domains shown)
# VH: B1 VH
# VL: B1 VL with L33I, A51T, S53N, L54I, F91Y, K93R
# B22: AB200-R1H26-R2Vk41 (Fab, V domains shown)
# VH: B1 VH
# VL: B1 VL with L33I, A51T, S53N, L54I, K93R, S97T
# B23: AB200-R1H26-R2Vk34 (Fab, V domains shown)
# VH: B1 VH
# VL: B1 VL with L33I, A51T, S53N, F91Y, K93R
# B24: AB200-R1H26-R2Vk45 (Fab, V domains shown)
# VH: B1 VH
# VL: B1 VL with L33I, A51T, S53N, S56I, F91Y, K93R, L94I, S97T
# B25: AB200-R1H26-R2Vk7 (Fab, V domains shown)
# VH: B1 VH
# VL: B1 VL with L33I, A51T, S53N, L54I
# B26: AB200-R1H26-R2Vk37 (Fab, V domains shown)
# VH: B1 VH
# VL: B1 VL with L33I, A51T, S53N, F91Y, L94I
# B27: AB200-R1H26-R2Vk38 (Fab, V domains shown)
# VH: B1 VH
# VL: B1 VL with L33I, A51T, S53N, L94I, S97T
# B28: AB200-R1H26-R2Vk11 (Fab, V domains shown)
# VH: B1 VH
# VL: B1 VL with K93R, S97T
# B29: AB200-R1H26-R2Vk29 (Fab, V domains shown)
# VH: B1 VH
# VL: B1 VL with A51T, S53N, S56I, F91Y, K93R
# B30: AB200-R1H26-R2Vk9 (Fab, V domains shown)
# VH: B1 VH
# VL: B1 VL with F91Y, K93R
# B31: AB200-R1H26-R2Vk24 (Fab, V domains shown)
# VH: B1 VH
# VL: B1 VL with A51T, S53N, L54I, F91Y, K93R
# B32: AB200-R1H26-R2Vk19 (Fab, V domains shown)
# VH: B1 VH
# VL: B1 VL with A51T, S53N, F91Y, K93R
# B33: AB200-R1H26-R2Vk22 (Fab, V domains shown)
# VH: B1 VH
# VL: B1 VL with A51T, S53N, F91Y, L94I
# B34: AB200-R1H26-R2Vk4 (Fab, V domains shown)
# VH: B1 VH
# VL: B1 VL with A51T, S53N, L54I
# B35: AB200-R1H26-R2Vk13 (Fab, V domains shown)
# VH: B1 VH
# VL: B1 VL with L94I, S97T
# B36: AB200-R1H26-R2Vk33 (Fab, V domains shown)
# VH: B1 VH
# VL: B1 VL with A51T, S53N, S56I, L94I, S97T
# B37: AB200-R1H26-R2Vk20 (Fab, V domains shown)
# VH: B1 VH
# VL: B1 VL with A51T, S53N, F91Y, K93R, L94I, S97T
# B38: AB200-R1H26-R2Vk3 (Fab, V domains shown)
# VH: B1 VH
# VL: B1 VL with A51T, S53N
# B39: AB200-R1H26-R2Vk27 (Fab, V domains shown)
# VH: B1 VH
# VL: B1 VL with A51T, S53N, L54I, F91Y, L94I
# B40: AB200-R1H26-R2Vk43 (Fab, V domains shown)
# VH: B1 VH
# VL: B1 VL with L33I, A51T, S53N, L54I, L94I, S97T
# B41: AB200-R1H26-R2Vk48 (Fab, V domains shown)
# VH: B1 VH
# VL: B1 VL with L33I, A51T, S53N, S56I, L94I, S97T
# B42: AB200-R1H26-R2Vk21 (Fab, V domains shown)
# VH: B1 VH
# VL: B1 VL with A51T, S53N, K93R, S97T
# B43: AB200-R1H26-R2Vk5 (Fab, V domains shown)
# VH: B1 VH
# VL: B1 VL with A51T, S53N, S56I
# B44: AB200-R1H26-R2Vk40 (Fab, V domains shown)
# VH: B1 VH
# VL: B1 VL with L33I, A51T, S53N, L54I, F91Y, K93R, L94I, S97T
# B45: AB200-R1H26-R2Vk47 (Fab, V domains shown)
# VH: B1 VH
# VL: B1 VL with L33I, A51T, S53N, S56I, F91Y, L94I
# B46: AB200-R1H26-R2Vk35 (Fab, V domains shown)
# VH: B1 VH
# VL: B1 VL with L33I, A51T, S53N, F91Y, K93R, L94I, S97T
# B47: AB200-R1H26-R2Vk44 (Fab, V domains shown)
# VH: B1 VH
# VL: B1 VL with L33I, A51T, S53N, S56I, F91Y, K93R
# B48: AB200-R1H26-R2Vk28 (Fab, V domains shown)
# VH: B1 VH
# VL: B1 VL with A51T, S53N, L54I, L94I, S97T
# Target: T1, extracellular domain of human BCMA
# Assay: Octet BLI; Fab 200 nM
row,Binder,Kd
1,B1,2.04 nM
2,B2,2.09 nM
3,B3,3.44 nM
4,B4,2.52 nM
5,B5,3.27 nM
6,B6,2.37 nM
7,B7,3.59 nM
8,B8,2.08 nM
9,B9,1.35 nM
10,B10,1.46 nM
11,B11,1.93 nM
12,B12,1.67 nM
13,B13,2.42 nM
14,B14,3.72 nM
15,B15,2.28 nM
16,B16,3.23 nM
17,B17,2.04 nM
18,B18,1.1 nM
19,B19,1.74 nM
20,B20,1.69 nM
21,B21,1.83 nM
22,B22,1.87 nM
23,B23,1.55 nM
24,B24,1.57 nM

row,Binder,Kd
1,B25,2.17 nM
2,B26,2.3 nM
3,B27,2.85 nM
4,B28,1.55 nM
5,B29,1.18 nM
6,B30,2.35 nM
7,B31,1.62 nM
8,B32,1.62 nM
9,B33,2.24 nM
10,B34,1.7 nM
11,B35,3.02 nM
12,B36,1.74 nM
13,B37,2.1 nM
14,B38,1.62 nM
15,B39,2.33 nM
16,B40,3.23 nM
17,B41,2.31 nM
18,B42,1.27 nM
19,B43,1.29 nM
20,B44,2.34 nM
21,B45,1.73 nM
22,B46,1.76 nM
23,B47,1.28 nM
24,B48,2.68 nM
